Measured values: US20090227507A1, “Angiotensin (1-7) Dosage Forms and Uses Thereof” (UNIVERSITY OF SOUTHERN CALIFORNIA, priority 2008, published 2009)

Legend:
lymphocyte numbers = assay: Lymphocyte recovery after subcutaneous TXA127 in subjects without HIV infection (breast cancer subjects receiving chemotherapy); type: in vivo; settings: human subjects without HIV infection (e.g., breast cancer subjects receiving cancer chemotherapy)
From the text: In the absence of effective antiretroviral therapy, HIV disease is characterized by the relentless destruction of CD4+ T-lymphocytes resulting in disordered and declining immune function.

[1] = 12-lead electrocardiogram in healthy men; type: in vivo, human; settings: Screening or Study Day 8
From the text: Safety assessments during the study period included vital sign measurement (systolic [SBP] and diastolic [DBP] blood pressure, heart rate [HR], respiratory rate [RR] in the sitting position, and oral temperature), clinical chemistry, hematology, urinalysis, 12-lead electrocardiogram (ECG) in the supine position, and AE monitoring. Clinical chemistry/hematology samples were drawn within a 30-minute period prior to dosing on selected dosing days.

[2] = Renal laboratory values (serum creatinine, creatinine clearance, 24-hour urine) in healthy men; settings: human, in vivo
Experimental: USB003 was administered SC in the abdomen by a qualified study staff member 24 hours after the previous (Day 6) injection.
Blood, urobilinogen, ketones, glucose, protein, microscopic examination of sediment, sodium, and potassium.

[3] = Clinical chemistry in healthy men; settings: for Potassium shift H-N, number of subjects / Potassium shift L-N, number of subjects / Potassium shift N-H, number of subjects / Potassium shift N-L, number of subjects: Chemistry; for AST/SGOT High/Low Normal/Abnormal: Subject 027, 200 μg/kg
Experimental: Safety evaluations are based on AEs, PEs, vital signs, temperature, and laboratory results from baseline to study completion. Laboratory measurements were conducted by a local clinical laboratory. Using standard procedures, blood samples were drawn or urine collected from subjects for the following laboratory tests:
Aspartate aminotransferase (AST), alanine aminotransferase (ALT), gamma, glutamyltranferase (GGT), creatinine, creatine kinase, sodium, potassium, bicarbonate (CO2), chloride, glucose, magnesium, calcium, inorganic phosphorous, blood urea nitrogen (BUN), total protein, albumin, total bilirubin, direct and indirect bilirubin, uric acid, and alkaline phosphatase,

[4] = Physical examination in healthy men; type: in vivo, human; settings: all dose groups; baseline (Day 1) to Day 20
From the text: On Day −1, subjects who met the eligibility criteria underwent a PE, vital sign measurements, and had samples drawn to evaluate clinical laboratory parameters. On Study Days 1 through 7 for each cohort, subjects received a single SC injection of USB003 at the assigned dose level or placebo. Subjects were kept in the clinic under observation for the entire Day −1 to Day 8 period. Subjects were discharged from the clinic on the morning of Day 8 after all scheduled procedures and a 24-hour urine collection had been completed. Subjects were scheduled to return to the clinic on Days 11, 14, 17, and 20 for hematology measurements and selected safety assessments. Subjects were to be released from the study following a post-study PE on Day 20.
On Day 20 of the study, subjects were to have returned to the clinic for the post-study check and PE. Blood samples for hematology and plasma USB003 were also drawn.
Laboratory measurements were conducted by a local clinical laboratory.

[5] = 200 μg/kg, N = 9, baseline to Day 8
[6] = 300 μg/kg, N = 8, baseline to Day 8

Question: For Asp-Arg-Val-Tyr-Ile-His-Pro [USB003], which “lymphocyte numbers following subcutaneous injection” value (lymphocyte numbers) is on record?
Answer: dramatic recovery of lymphocyte numbers

Question: What about the “12-lead ECG findings” value [1] of the same substance?
Answer: no abnormal CS 12-lead ECGs findings

Question: And the “Creatinine Clearance shift L-N, number of subjects” value ([2]; 200 ug/kg)?
Answer: 3

Question: What about the creatinine clearance ([2]; 200 ug/kg) of the same substance?
Answer: increase

Question: What about the “subjects with creatinine clearance shifted from low to normal” value ([2]; 200 ug/kg) of the same substance?
Answer: 3 of the 9

Question: What about the “Creatinine Clearance shift L-N, number of subjects” value ([2]; 300 ug/kg) of the same substance?
Answer: 2

Question: And the “Creatinine Clearance shift N-L, number of subjects” value ([2]; 300 ug/kg)?
Answer: 1

Question: And the “increase in creatinine clearance” value ([2]; 300 ug/kg)?
Answer: not observed

Question: What about the “subjects with creatinine clearance shifted from low to normal” value ([2]; 300 ug/kg) of the same substance?
Answer: 2 of the 8

Question: And the “ALT (SGPT) shift H-N, number of subjects” value [3, 5]?
Answer: — (“—” = 0)

Question: What about the “ALT (SGPT) shift L-N, number of subjects” value [3, 5] of the same substance?
Answer: — (“—” = 0)

Question: What about the “ALT (SGPT) shift N-H, number of subjects” value [3, 5] of the same substance?
Answer: 1

Question: And the “ALT (SGPT) shift N-L, number of subjects” value [3, 5]?
Answer: — (“—” = 0)

Question: And the “AST (SGOT) shift H-N, number of subjects” value [3, 5]?
Answer: — (“—” = 0)

Question: And the “AST (SGOT) shift L-N, number of subjects” value [3, 5]?
Answer: — (“—” = 0)

Question: And the “AST (SGOT) shift N-H, number of subjects” value [3, 5]?
Answer: 1

Question: And the “AST (SGOT) shift N-L, number of subjects” value [3, 5]?
Answer: — (“—” = 0)

Question: And the “BUN shift H-N, number of subjects” value [3, 5]?
Answer: — (“—” = 0)

Question: And the “BUN shift L-N, number of subjects” value [3, 5]?
Answer: 1

Question: And the “BUN shift N-H, number of subjects” value [3, 5]?
Answer: — (“—” = 0)

Question: And the “BUN shift N-L, number of subjects” value [3, 5]?
Answer: — (“—” = 0)

Question: What about the “Magnesium shift H-N, number of subjects” value [3, 5] of the same substance?
Answer: — (“—” = 0)

Question: What about the “Magnesium shift L-N, number of subjects” value [3, 5] of the same substance?
Answer: — (“—” = 0)

Question: And the “Magnesium shift N-H, number of subjects” value [3, 5]?
Answer: — (“—” = 0)

Question: What about the “Magnesium shift N-L, number of subjects” value [3, 5] of the same substance?
Answer: 1

Question: What about the “Total CPK shift H-N, number of subjects” value [3, 5] of the same substance?
Answer: 1

Question: And the “Total CPK shift L-N, number of subjects” value [3, 5]?
Answer: — (“—” = 0)

Question: What about the “Total CPK shift N-H, number of subjects” value [3, 5] of the same substance?
Answer: — (“—” = 0)

Question: What about the “Total CPK shift N-L, number of subjects” value [3, 5] of the same substance?
Answer: — (“—” = 0)

Question: What about the “ALT, Subject 009” value ([3]; 200 μg/kg, Day 8) of the same substance?
Answer: 103 IU/L

Question: What about the “AST, Subject 009” value ([3]; 200 μg/kg, Day 8) of the same substance?
Answer: 66 IU/L

Question: And the “ALT, Subject 009” value ([3]; 200 μg/kg, Day 14)?
Answer: 61 IU/L

Question: What about the “AST, Subject 009” value ([3]; 200 μg/kg, Day 14) of the same substance?
Answer: 29 IU/L

Question: And the “ALT (SGPT) shift H-N, number of subjects” value [3, 6]?
Answer: — (“—” = 0)

Question: And the “ALT (SGPT) shift L-N, number of subjects” value [3, 6]?
Answer: — (“—” = 0)

Question: And the “ALT (SGPT) shift N-H, number of subjects” value [3, 6]?
Answer: — (“—” = 0)

Question: What about the “ALT (SGPT) shift N-L, number of subjects” value [3, 6] of the same substance?
Answer: — (“—” = 0)

Question: What about the “AST (SGOT) shift H-N, number of subjects” value [3, 6] of the same substance?
Answer: — (“—” = 0)

Question: What about the “AST (SGOT) shift L-N, number of subjects” value [3, 6] of the same substance?
Answer: — (“—” = 0)

Question: What about the “AST (SGOT) shift N-H, number of subjects” value [3, 6] of the same substance?
Answer: — (“—” = 0)

Question: And the “AST (SGOT) shift N-L, number of subjects” value [3, 6]?
Answer: — (“—” = 0)

Question: What about the “BUN shift H-N, number of subjects” value [3, 6] of the same substance?
Answer: — (“—” = 0)

Question: What about the “BUN shift L-N, number of subjects” value [3, 6] of the same substance?
Answer: 1

Question: And the “BUN shift N-H, number of subjects” value [3, 6]?
Answer: — (“—” = 0)

Question: And the “BUN shift N-L, number of subjects” value [3, 6]?
Answer: — (“—” = 0)

Question: What about the “Magnesium shift H-N, number of subjects” value [3, 6] of the same substance?
Answer: — (“—” = 0)

Question: What about the “Magnesium shift L-N, number of subjects” value [3, 6] of the same substance?
Answer: 1

Question: And the “Magnesium shift N-H, number of subjects” value [3, 6]?
Answer: — (“—” = 0)

Question: What about the “Magnesium shift N-L, number of subjects” value [3, 6] of the same substance?
Answer: — (“—” = 0)

Question: What about the “Total CPK shift H-N, number of subjects” value [3, 6] of the same substance?
Answer: — (“—” = 0)

Question: And the “Total CPK shift L-N, number of subjects” value [3, 6]?
Answer: — (“—” = 0)

Question: What about the “Total CPK shift N-H, number of subjects” value [3, 6] of the same substance?
Answer: — (“—” = 0)

Question: And the “Total CPK shift N-L, number of subjects” value [3, 6]?
Answer: — (“—” = 0)

Question: What about the “Potassium shift H-N, number of subjects” value [3, 5] of the same substance?
Answer: — (“—” = 0)

Question: What about the “Potassium shift L-N, number of subjects” value [3, 5] of the same substance?
Answer: — (“—” = 0)

Question: What about the “Potassium shift N-H, number of subjects” value [3, 5] of the same substance?
Answer: — (“—” = 0)

Question: What about the “Potassium shift N-L, number of subjects” value [3, 5] of the same substance?
Answer: — (“—” = 0)

Question: And the “Potassium shift H-N, number of subjects” value [3, 6]?
Answer: 1

Question: And the “Potassium shift L-N, number of subjects” value [3, 6]?
Answer: — (“—” = 0)

Question: What about the “Potassium shift N-H, number of subjects” value [3, 6] of the same substance?
Answer: — (“—” = 0)

Question: And the “Potassium shift N-L, number of subjects” value [3, 6]?
Answer: 1

Question: What about the “AST/SGOT High/Low Normal/Abnormal” value ([3]; Day 7 U (unscheduled)) of the same substance?
Answer: N

Question: What about the “AST/SGOT High/Low Normal/Abnormal” value ([3]; Day 8) of the same substance?
Answer: N

Question: What about the “mean change from baseline on any serum chemistry evaluations” value ([3]; baseline to Day 4 or Day 8) of the same substance?
Answer: no notable effects

Question: And the PE findings [4]?
Answer: no changes from baseline
